One molecule from US20160200789A1, “IL4 CONJUGATED TO ANTIBODIES AGAINST EXTRACELLULAR MATRIX COMPONENTS” (PHILOGEN S.P.A., priority 2013, published 2016) can be followed below.

The test system of data set [1] is collagen induced arthritis in DBA/1J mice. Description: Aggressive collagen induced arthritis model, F8-IL4 dose comparison (Example 3). The data set is classed as in vivo. How it is done:
Animals showing signs of joint inflammation with a total score of 1 to 3 were included in the therapy experiments. When the joint inflammation was too high at day one (more than one paw, score>3) mice were not included in the therapy experiments. Experiments were performed under a project license granted by the Veterinaeramt des Kantons Zuerich, Switzerland (208/2010).
The dose for TNFR-Fc was determined by calculations from the human ENBREL dose and the approximate local TNF concentration compared with the bioactivity of the fusion protein.

Data set [2] shares this test system. Description: Aggressive collagen induced arthritis model, targeted vs untargeted IL4 (Example 3a). Conditions: 100 μg/injection i.v., days 1, 3 and 7. Type of data set: in vivo, mouse. As for the experimental part: Injections were administered on day 1, 3 and 7.
The test system of a further data set is CTLL2 cells. Description: CTLL2 cell proliferation bioactivity assay. The following applies: 24 h. Type of data set: cell-based. As for the experimental part:
The biological activity of murine IL4 was determined by its ability to stimulate the proliferation of CTLL2 cells. […] After incubation at 37° C. for 24 h, cell proliferation was determined with Cell Titer Aqueous One Solution (Promega).

The next data set deals with F9 teratocarcinoma. Description: Quantitative biodistribution in F9 tumour-bearing mice. Type of data set: in vivo, mouse. As for the experimental part:
The in vivo targeting performance was assessed by quantitative biodistribution where 15 μg of radioiodinated fusion protein was injected i.v. into the lateral tail vein of immunocompetent 11-12 week old female Sv129Ev mice (obtained from Charles River [Germany]), bearing sub-cutaneously grafted F9 tumours (for labelling protocol, see (Pasche et al. 2011)). Mice were sacrificed 24 hours after injection, organs were excised, weighed and radioactivity was measured using a Packard Cobra γ counter.

Data set [3] has as its system imiquimod (IMQ)-induced ear inflammation in C57BL/6 mice. Description: IMQ-induced inflammation model of psoriasis. Type of data set: in vivo, mouse. How it is done:
C57BL/6 mice (Charles River, Germany) were treated on each side of each ear with 5 mg Aldara cream (containing 0.25 mg Imiquimod). The treatment schedule is illustrated in FIG. 11A. The Aldara cream was applied every day for 5 days (on day 1, 2, 3, 4 5 and […]: each application is illustrated by an asterisk in FIG. 11A). Ear thickness was measured with a caliper before the application of the cream. […] Treatment was repeated on day 9 and 11 (each treatment event is illustrated by an arrow in FIG. 11A).

The subject of data set [4] is CHS-induced ear inflammation in K14-VEGF-A mice. Description: Contact hypersensitivity-induced ear inflammation in K14-VEGF-A mice. The data set is classed as in vivo, mouse. The source says: A delayed-type hypersensitivity reaction was induced in the ear skin of female FVB mice that overexpress VEGF-A in the epidermis under control of the human keratin 14 promoter as previously described (Detmar et al., 1998; Kunstfeld et al., 2004; Xia et al., 2003). Heterozygous VEGF-A transgenic mice with no pre-existing inflammatory lesions were sensitized by topical application of a 2% oxazolone (4-ethoxymethylene-2-phenyl-2-oxazoline-5-one; Sigma) solution in acetone/olive oil (4:1 vol/vol) to the shaved abdomen (50 μl) and each paw (5 μl). Five days after sensitization, the ears were challenged by topical application of 20 μl of a 1% oxazolone solution. Therapy was started on day 7 and repeated at day 9, 11 and 13. […] Ear thickness was measured every other day and at day 15, mice were sacrificed and ear draining lymph nodes were weighted. The timeline for this experiment is illustrated in FIG. 13A. Each treatment event is indicated by an arrow.

[5] abbreviates: 15 μg radioiodinated protein i.v., 24 hours.

For orientation: EC50 means the midpoint of the concentration-response curve. High values mean a need for much substance, low ones an effect from little substance.

B1: F8-IL4: antibody F8 (anti-EDA of fibronectin) in diabody format fused at the C-terminus to murine interleukin 4 via 15 amino acid linker (protein)
chain: EVQLLESGGGLVQPGGSLRLSCAASGFTFSLFTMSWVRQAPGKGLEWVSAISGSGGSTYYADSVKGRFTISRDNSKNTLYLQMNSLRAEDTAVYYCAKSTHLYLFDYWGQGTLVTVSSGGSGGEIVLTQSPGTLSLSPGERATLSCRASQSVSMPFLAWYQQKPGQAPRLLIYGASSRATGIPDRFSGSGSGTDFTLTISRLEPEDFAVYYCQQMRGRPPTFGQGTKVEIKSSSSGSSSSGSSSSGHIHGCDKNHLREIIGILNEVTGEGTPCTEMDVPNVLTATKNTTESELVCRASKVLRIFYLKHGKTPCLKKNSSVLMELQRLFRAFRCLDSSISCTMNESKSTSLKDFLESLKSIMQMDYS
modifications: Synthetic sequence Amino acid sequence of F8 -(murine) IL4 of PCT/EP2014/053998
notes: antibody F8 (anti-EDA of fibronectin) in diabody format fused at the C-terminus to murine interleukin 4 via 15 amino acid linker
For the molecule B1, in data set [1] (100 μg vs TNFR-Fc 30 μg), the “reduction in paw swelling compared with murine version of ENBREL” value is listed as “at least equivalent”. In addition, the tolerability entry in data set [1] (100 μg/injection) was “well tolerated”. Besides, in data set [1] (100 μg/injection), the weight change entry is “lost less weight than mice receiving only the buffer vehicle (PBS)”. In addition, in data set [1] (100 μg/injection i.v., days 1, 4 and 7), the “disease-modulating effect (arthritic score)” value is reported as “at least as potent as the murine version of Enbrel (TNFR-Fc)”. In data set [1] (100 μg, vs buffer vehicle or low dose), the paw swelling entry is “less severe paw swelling than mice receiving only the buffer vehicle or low amounts of F8-IL4”. For the same molecule, in data set [2], the “activity in reducing arthritic score and paw swelling compared to KSF-IL4” value is on record as “statistically significant superior activity”. The EC50 in the data set with CTLL2 cells (CTLL2 cells, 20000 cells/well) was 0.023 nM. In addition, the biological cytokine activity result with CTLL2 cells (CTLL2 proliferation) is recorded as “comparable to that of recombinant murine IL4”. Besides, the “accumulation at the tumour site (% ID/g)” value with F9 teratocarcinoma (setting [5]) is given as “preferential accumulation”. Also, the tumour-to-blood ratio in the data set on F9 teratocarcinoma (setting [5]) was 12. Besides, the “clearance from the blood stream” value in the data set with F9 teratocarcinoma (24 hours after i.v. injection) was “fast clearance from the blood stream”. Besides, the ear thickness result in data set [3] (100 μg i.v. days 7, 9, 11, day 13, vs PBS or KSF-IL4) was “significantly reduced ear thickness”; in data set [4] (100 μg i.v. days 7, 9, 11, 13, vs PBS or KSF-IL4), “significantly reduced ear thickness”. The “ear draining lymph nodes (weight)” value in data set [3] (day 13) and in data set [4] (day 15) was “smaller” throughout. The “decrease in ear thickness from treatment initiation (day 7)” value in data set [3] (mouse, in vivo) is listed as “significantly more than in mice receiving either PBS, F8-SIP or KSF-IL4 treatment”; in data set [4] (mouse, in vivo) it was “significantly more than treatment with either FSF-IL4, F8-SIP or PBS”.
